Holding throughout (assay): DMS production by GC, nonlinear fit of initial rates
Holding throughout (type): biochemical, Psychrobacter sp.

Substrate in series [1]: CC(C)(COP(=O)(O)OP(=O)(O)OC[C@H]1O[C@@H](n2cnc3c(N)ncnc32)[C@H](O)[C@@H]1OP(=O)(O)O)[C@@H](O)C(=O)NCCC(=O)NCCS
The following applies: co-substrates DMSP and ATP, pH 8.5, 40 °C.

Substrate in series [2]: C[S+](C)CCC(=O)[O-]
The following applies: co-substrates ATP and CoA, pH 8.5, 40 °C.

Substrate in series [3]: Nc1ncnc2c1ncn2[C@@H]1O[C@H](COP(=O)(O)OP(=O)(O)OP(=O)(O)O)[C@@H](O)[C@H]1O
As to conditions: co-substrates DMSP and CoA, pH 8.5, 40 °C.

A word on the Km: it is the concentration of substrate that gives half-maximal velocity. A word on the kcat: it is the maximal rate divided by the concentration of active sites.

B1: DddX (Psychrobacter sp.) (protein)
chain: LTGQIIEYTIKIQTIYTGNFKHKNGFLKMIERGIAMKKENLKILAKKAQTIAIVGANYRFATRVLLENLDKMDFTGTIYLVNPRYENIDGVRCYQSLLEIEDTIDVVVGLVNPQLMIQVASNASKINAKVLVIPGGGYGESGVEGQNIQNAILERAADSGMRIVGPNCMGYLNMHAQFTPYIGTLHRPLRPIKKGPVSIISQSGSVNDAFIASKLGISKIYSTGNEADVQMHDYLNLLAEDPETSVIILYIEAIRNHLSFLRALDLCSKNKKPVIAIKVGRTIKSAAVANAHSGALAGDYEIEKLFLEGHGVLFVEDIDQAVAVALLLSQPYLPTVNTVAALTVSGGQAGILLDLAEDYGVDFPDFSAVTNYEIASKLPELGGLSNPLDIWGKSSKDFSEVSNICLSSIVKDADIGIITVAIDAPIGQGDHEFDFTSIPAKDLASLRGNSDKPFLYFSHIQTEFDPRVESILDEAGIAVIQGSRNALVACRALFKYKEFLEKNNHTPIYSVEDLSIQKGLKLLHDNEGRKLLDESGFVSPREQVVTSLQEGVDYAESIGYPVVLKAQGLAHKTDVGGVALNIKSAAKLKKAWGKMEHLNSPYYLIQEMVTDGFETILAYRTDMNYGPVVIFGLGGIYTELFNEVVLAVPPITHKKAEQMVKSIPMLWKSIEGYRGNPALDLEALTASIVQMGETAMEKYEEIVEFEINPLSVRVKGVVALDVLASVKTTAAKEADAEEADVKKCSELV
notes: full length (2247 bp gene), pET-22b, C-terminal His tag, E. coli BL21(DE3); dimer in solution
As for B1, the figures for the Km in series [1], in series [2] and in series [3] were 400 µM, 400 µM and 2500 µM, respectively. Besides, in series [2], the kcat was found to be 0.7 s⁻¹.

The values are drawn from paper PMC8163506, “A novel ATP dependent dimethylsulfoniopropionate lyase in bacteria that releases dimethyl sulfide and acryloyl-CoA” (eLife, 2021).
